Data on three molecules can be found in US6429304B1, “Nucleic acids encoding a katanin p60 subunit” (The Regents of the University of California, priority 1998, dated 2002).

For series [1], the system named is Taxol-stabilized, rhodamine-labeled microtubules. The series can be described thus: Microscope-based microtubule severing assay. It is filed as biochemical. The conditions noted are these: for microtubule severing (in words): p60, p60/p80 0.1 μM, p80 0.5 μM (5-fold higher). The method, then:
FIGS. 5A, 5B, and 5C illustrate the activities of recombinant katanin subunits. […] Taxol-stabilized, rhodamine-labeled microtubules were adsorbed onto the surface of a microscope perfusion chamber, and then recombinant katanin subunits were introduced. The time elapsed after perfusing p60/p80 (0.1 μM), p60 (0.1 μM), or p80 (0.5 μM) is shown. The recombinant co-expressed p60/p80 and p60, but not p80, can sever and disassemble microtubules. Scale bar, 10 μm.
Microscope-based severing assays were performed using previously published procedures (McNally and Vale (1993) Cell, 75: 419-429), except that microtubules were immobilized by first perfusing flow cells with a bacterially expressed kinesin mutant that binds strongly to microtubules but is unable to hydrolyze ATP (K560, G234A mutant; R. Vale and E. Taylor, unpublished results). Assays were performed in 20 mM Hepes (pH 7.5), 2 mM MgCl2, 1 mM ATP with an oxygen scavenger system consisting of glucose oxidase (220 μg/ml), catalase (36 μg/ml), glucose (22.5 mM), and 2-mercaptoethanol (71.5 mM). Images were captured using a cooled, slow-scan CCD (Photometerics) and processed using Adobe Photoshop.

Series [2] has as its system DAPI-labeled microtubules. The series can be described thus: DAPI fluorescence microtubule disassembly (severing) assay. The conditions noted are these: 2 μM microtubules. It is filed as biochemical, bovine. From the text:
To better compare the microtubule severing activities of p60 and p60/p80, we developed a quantitative microtubule disassembly assay based upon a previous finding that DAPI fluorescence intensity is higher when this dye is bound to polymerized versus free tubulin (Heusele et al. (1987) Eur. J Biochem. 165: 613-620). […] This slower rate of microtubule disassembly is consistent with the previously described 2-fold decrease in ATPase activity of p60 compared with p60/p80.
ATPase activity was measured by a modified malachite green method (Kodama et al. (1986) J. Biochem. 99: 1465-1472). […] Microtubule concentration was determined by measuring the absorbance at 275 nm in 6 M guanidine HCl by using a molecular mass of 110 kDa and an extinction coefficient of 1.03 ml mg^−1 cm^−1 (Hackney (1988) Proc. Natl. Acad Sci. USA, 85: 6314-6318). […]
DAPI severing assays were performed using conditions where the change in fluorescence intensity was linear with the amount of tubulin polymer added (Heusele et al. (1987) Eur. J Biochem. 165: 613-620). […] The reaction volume was 80 μL, and fluorescence intensity was measured by exciting at 370 nm. and measuring the emission at 450 mn using a model 8100 fluorimeter (SLM Instruments) in photon counting mode.

Series [3] is described as follows: ATPase assay (modified malachite green method). It is filed as biochemical. The conditions noted are these: for ATPase activity (in words): baculovirus-expressed subunit alone. The procedure: ATPase activity was measured by a modified malachite green method (Kodama et al. (1986) J. Biochem. 99: 1465-1472). ATPase reactions of 50-100 μl were carried out in a buffer previously used for measuring the ATPase activity of native katanin [20 mM K-HEPES pH 8.0, 25 mM potassium glutamate 2 mM MgCl2, 10% glycerol (v/v), 0.02% Triton X-100 (w/v), 1 mg/ml BSA] (McNally and Vale (1993) Cell, 75: 419-429), except that soybean trypsin inhibitor (SBTI) was replaced by BSA as a carrier protein because SBTI increased background phosphate contamination. An ATP regenerating system, consisting of 0.5-1.0 mM phosphoenol pyruvate and 2 units of pyruvate kinase, was included to minimize the inhibition by ADP observed previously for native katanin (McNally and Vale (1993) Cell, 75: 419-429). Microtubules were prepared from bovine brain tubulin (Hyman et al. (1990) Meth. Enzymol. 196: 303-319; and Williams and Lee (1982) Meth Enzymol. 85B: 376-385). After assembly, microtubules were sedimented (230,000×g; 10 min), resuspended in ATPase buffer lacking BSA, and the polymers were resuspended by repeated passage through a 27 gauge needle. Microtubule concentration was determined by measuring the absorbance at 275 nm in 6 M guanidine HCl by using a molecular mass of 110 kDa and an extinction coefficient of 1.03 ml mg^−1 cm^−1 (Hackney (1988) Proc. Natl. Acad Sci. USA, 85: 6314-6318). ATPase reactions were carried out at room temperature, and were initiated by addition of katanin.

Another series deals with MSU1.1 human fibroblasts. The series can be described thus: Centrosome targeting of GFP fusion after transient transfection. Format: cell-based. The conditions noted are these: 2-4 hr after transfection. The method, then:
To allow transient expression of a human p80 WD40-GFP fusion protein in HeLa cells, a DNA fragment containing amino acids 1-263 of human p80 katanin was generated by PCR amplification, placing a BamHI site and a Kozak consensus at the predicted translation start and an EcoRI site after the codon for a.a. 263. This BamHI-EcoRI fragment was ligated into the GFP fusion vector pEGFP-N1 (Clontech).
Both MSU1.1 and HeLa cells were grown on 18 mm glass coverslips in Optimem medium (Life Technologies) supplemented with 10% fetal bovine serum, penicillin and streptomycin. Plasmids were transfected using Superfect Reagent (Qiagen) for 2 hr after which coverslips were washed with PBS and placed in fresh culture medium at 37° C. with 5% CO2 for 1-24 hr.
For imaging of GFP-fluorescence and immunofluorescence with the human p80 katanin antibody or with the γ-tubulin antibody, monoclonal GTU88 (Sigma Chemical), cells on coverslips were fixed either in −20° C. methanol or in 0.5×PBS, 3.7% formaldehyde, 75% methanol at 22° C. for 10 min followed by rehydration in TBST. Antibody labelling was carried out in TBST containing 4% BSA. Images were captured with a Nikon Microphot SA microscope, 100×Plan Fluor 1.3 objective, Photometrics Quantix camera and IP Lab Spectrum software (Scanalytics).

B1: p80: S. purpuratus katanin p80 subunit, 690 a.a. with six WD40 repeats (SEQ ID NO:2), baculovirus-expressed, His-tagged (protein, listed as Strongylocentrotus purpuratus)
chain: MATKRAWKLQELVAHSSNVNCLALGPMSGRVMVTGGEDKKVNLWAVGKQNCIISLSGHTSPVDSVKFNSSEELVVAGSQSGTMKIYDLEPAKIVRTLTGHRNSIRCMDFHPFGEFVASGSTDTNVKLWDVRRKGCIYTYKGHSDQVNMIKFSPDGKWLVTASEDTTIKLWDLTMGKLFQEFKNHTGGVTGIEFHPNEFLLASGSSDRTVQFWDLETFQLVSSTSPGASAVRSISFHPDGSYLFCSSQDMLHAFGWEPIRCFDTFSVGWGKVADTVIASTQLIGASFNATNVSVYVADLSRMSTTGIAQEPQSQPSKTPSGGAEEVPSKPLTASGRKNFVRERPHTTSSKQRQPDVKSEPERQSPTQDEGVKDDDATDIKDPDSYAKIFSPKTRVDHSPERNAQPFPAPLDVPGAQEPEPFKHPPKPAAAAAVAPVSRAPAPSASDWQPAQANPAPNRVPAATKPVPAQEVAPSRKPDPISTIIPSDRNKPANLDMDAFLPPAHAQQAPRVNAPASRKQSDSERIEGLRKGHDSMCQVLSSRHRNLDVVRAIWTAGDAKTSVESVVNMKDQAILVDILNIMLLKKSLWNLDMCVVVLPRLKELLSSKYENYVHTSCACLKLILKNFTSLFNQNIKCPPSGIDITREERYNKCSKCYSYLIATRGYVEEKQHVSGKLGSSFRELHLLLDQLE
modifications: His tag; katanin p80 subunit
As to B1, the “microtubule severing (in words)” value in series [1] is “unable to sever microtubules”. In addition, the “change in DAPI fluorescence (in words)” value in series [2] is listed as “did not cause a change in fluorescence that was different from that shown for microtubules alone”. The “ATPase activity (in words)” value in series [3] is reported as “no detectable ATPase activity”.

B2: p60: S. purpuratus katanin p60 subunit, 516 a.a. AAA ATPase (SEQ ID NO:1), baculovirus-expressed with N-terminal His(6) tag (protein, listed as Strongylocentrotus purpuratus)
chain: MSVDEICENTKMGREYALLGNYETSLVYYQGVLQQIQKLLTSVHEPQRKHQWQTIRQELSQEYEHVKNITKTLNGFKSEPAAPEPAPNHRAAPFSHHQHAAKPAAAEPARDPDVWPPPTPVDHRPSPPYQRAARKDPPRRSEPSKPANRAPGNDRGGRGPSDRRGDARSGGGGRGGARGSDKDKNRGGKSDKDKKAPSGEEGDEKKFDPAGYDKDLVENLERDIVQRNPNVHWADIAGLTEAKRLLEEAVVLPLWMPDYFKGIRRPWKGVLMVGPPGTGKTMLAKAVATECGTTFFNVSSASLTSKYHGESEKLVRLLFEMARFYAPSTIFIDEIDSICSKRGTGSEHEASRRVKSELLIQMDGVSGPSAGEESSKMVMVLAATNFPWDIDEALRRRLEKRIYIPLPEIDGREQLLRINLKEVPLADDIDLKSIAEKMDGYSGADITNVCRDASMMAMRRRIQGLRPEEIRHIPKEELNQPSTPADFLLALQKVSKSVGKEDLVKYMAWMEEFGSV
modifications: N-terminal His6 tag; katanin p60 subunit
With B2, the “time until microtubules were completely disassembled” value in series [1] (0.1 μM protein, 1 mM ATP) was determined as 5 min. Also, the “microtubule severing (in words)” value in series [1] is “severed microtubules”. The “rate of microtubule disassembly compared with p60/p80” value in series [2] (0.2 μM protein) is reported as “half as active as p60/p80”. Also, the “ATPase activity (in words)” value in series [3] is reported as “displayed a microtubule-stimulated ATPase activity”. Besides, the “maximal basal and microtubule-stimulated ATPase rates relative to p60/p80 heterodimer” value in series [3] (compared with p60/p80) was determined as 2 fold lower. Further, the “microtubule concentration at peak stimulation of ATP turnover” value in series [3] (non-hyperbolic, decreases at higher microtubule concentrations) is reported as roughly 2 μM tubulin.

B3: p80 WD40-GFP: fusion of the six WD40 repeats of human p80 katanin (a.a. 1-263) to the N-terminus of green fluorescent protein (protein)
chain: MATPVVTKTAWKLQEIVAHASNVSSLVLGKASGRLLATGGDDCRVNLWSINKPNCIMSLTGHTSPVESVRLNTPEELIVAGSQSGSIRVWDLEAAKILRTLMGHKANICSLDFHPYGEFVASGSQDTNIKLWDIRRKGCVFRYRGHSQAVRCLRFSPDGKWLASAADDHTVKLWDLTAGKMMSEFPGHTGPVNVVEFHPNEYLLASGSSDRTIRFWDLEKFQVVSCIEGEPGPVRSVLFNPDGCCLYSGCQDSLRVYGWEPER
modifications: left off: large carriers
notes: fusion of the six WD40 repeats of human p80 katanin (a.a. 1-263) to the N-terminus of green fluorescent protein
With B3, the “localization of GFP fluorescence” value in the series on MSU1.1 human fibroblasts is reported as “co-localized with γ-tubulin staining”.
